How the values were obtained:
[1] = molecular target: PEAK3^tandem-pS69 peptide pre-complexed with 14-3-3ɣ (human); assay: ITC
[2] = molecular target: PEAK2^IDR1 (N-terminally truncated PEAK2, residues 802-1406) (human) (UniProt Q86YV5); assay: SEC-MALS
[3] = molecular target: PEAK3^tandem-pS69 phosphopeptide (residues 54-74) (human); assay: ITC
[4] = molecular target: full length recombinant PEAK3 (PEAK3^FL) from insect cells (human) (UniProt Q6ZS72); assay: SEC-MALS
Sequence of full length recombinant PEAK3 (PEAK3^FL) from insect cells (human) (Q6ZS72 whole entry): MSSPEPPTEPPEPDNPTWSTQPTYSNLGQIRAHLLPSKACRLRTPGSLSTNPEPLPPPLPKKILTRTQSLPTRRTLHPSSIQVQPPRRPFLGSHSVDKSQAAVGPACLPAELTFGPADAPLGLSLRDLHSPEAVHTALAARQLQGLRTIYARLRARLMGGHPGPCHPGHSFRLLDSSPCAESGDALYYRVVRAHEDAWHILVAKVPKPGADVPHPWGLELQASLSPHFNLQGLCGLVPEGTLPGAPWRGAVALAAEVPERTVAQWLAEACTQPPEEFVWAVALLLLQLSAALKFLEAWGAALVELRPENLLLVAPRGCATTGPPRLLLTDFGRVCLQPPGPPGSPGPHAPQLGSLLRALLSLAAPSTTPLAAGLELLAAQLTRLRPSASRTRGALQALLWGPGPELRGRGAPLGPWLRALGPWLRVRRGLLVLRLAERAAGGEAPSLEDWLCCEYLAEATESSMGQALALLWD

Sequence of PEAK2^IDR1 (N-terminally truncated PEAK2, residues 802-1406) (human) (Q86YV5 802-1406): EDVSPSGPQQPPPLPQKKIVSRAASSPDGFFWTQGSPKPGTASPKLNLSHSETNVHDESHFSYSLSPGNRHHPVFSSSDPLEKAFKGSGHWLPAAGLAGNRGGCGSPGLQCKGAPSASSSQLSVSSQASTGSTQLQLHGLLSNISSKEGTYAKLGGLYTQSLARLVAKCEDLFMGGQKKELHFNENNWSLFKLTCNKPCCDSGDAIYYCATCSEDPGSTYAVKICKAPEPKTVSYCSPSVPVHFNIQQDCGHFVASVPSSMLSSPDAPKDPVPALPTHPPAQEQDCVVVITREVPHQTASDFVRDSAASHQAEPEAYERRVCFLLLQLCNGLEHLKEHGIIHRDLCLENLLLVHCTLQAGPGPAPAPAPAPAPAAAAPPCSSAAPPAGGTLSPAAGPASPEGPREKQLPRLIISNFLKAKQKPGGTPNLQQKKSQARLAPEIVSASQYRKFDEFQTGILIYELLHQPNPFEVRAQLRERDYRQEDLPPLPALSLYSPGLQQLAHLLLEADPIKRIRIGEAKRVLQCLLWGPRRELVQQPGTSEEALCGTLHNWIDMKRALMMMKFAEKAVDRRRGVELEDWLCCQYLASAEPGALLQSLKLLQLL
Sequence of CrkII NSH3 domain (CrkII^NSH3) (P46108 134-191): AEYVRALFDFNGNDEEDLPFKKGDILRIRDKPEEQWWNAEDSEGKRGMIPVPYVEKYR

“CrkII NSH3 domain (CrkII^NSH3) (from UniProt P46108-1 134-191) (domain or fragment)” showed a Kd [1] of 3600 nM.
For “full length CrkII, dimer (CrkII^FL dimer) (from UniProt P46108-1 1-304) (natural protein)”, the stoichiometry N [2] was 1 ratio (2:2).
Work on human 14-3-3γ (natural protein) yielded a Kd [3] of 130 nM.
“insect cell derived 14-3-3ε,ζ heterodimer (complex)” showed a stoichiometry N (ratio (dimer:dimer)) [4] of 1.
